# ± gives the uncertainty stated by the source.
# Assay: self-splicing fitness, log relative to wild type (ln ratio); higher = more splicing; Tetrahymena group I intron in knt gene, E. coli kanamycin selection, DiMSum; sequences stand for … in CUCUCU…GGAGGGAAAAGUUAUCAGGCAUGCACCUGGUAGCUAGUCUUUAAACCAAUAGAUUGCAUCGGUUUAAAAGGCAAGACCGUCAAAUUGCGGGAAAGGGGUCAACAGCCGUUCAGUACCAAGUCUCAGGGGAAACUUUGAGAUGGCCUUGCAAAGGGUAUGGUAAUAAGCUGACGGACAUGGUCCUAACCACGCAGCCAAGUCCUAAGUCAACAGAUCUUCUGUUGAUAUGGAUGCAGUUCACAGACUAAAUGUCGGUCGGGGAAGAUGUAUUCUUCUCAUAAGAUAUAGUCGGACCUCUCCUUAAUGGGAGCUAGCGGAUGAAGUGAUGCAACACUGGAGCCGCUGGGAACUAAUUUGUAUGCGAAAGUAUAUUGAUUAGUUUUGGAGUACUCGUGGUCG
# How it was run: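 Library with all eight P1ex-region intron nucleotides randomised, intron inside the knt kanamycin-resistance gene on pET-22b(+), in E. coli BL21(DE3). Cells grew overnight at 37°C or 30°C on LB agar with or without 25 μg/mL kanamycin (plus 100 μg/mL carbenicillin, 50 μM IPTG, 0.2% rhamnose), in six replicate transformations. Pooled colonies were amplicon-sequenced on Illumina HiSeq 2500. DiMSum fitness is the error-weighted combination of wild-type-normalised replicate fold changes, kanamycin versus none.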
Sequence,self-splicing fitness (ln) (30 °C),self-splicing fitness (ln) (37 °C)
CUUGAGCAAUAUUACGGUUU,-2.68 ± 0.16,-2.66 ± 0.29
CUUGAGCAAUAUUACGUGCC,-2.26 ± 0.17,-2.75 ± 0.38
CUUGAGCAAUAUUACGUGGU,-2.61 ± 0.15,-2.74 ± 0.19
CUUGAGCAAUAUUACGUUGG,-2.66 ± 0.28,-0.601 ± 0.18
CUUGAGCAAUAUUACGUUUC,-3.44 ± 0.27,-2.68 ± 0.36
CUUUAGCAAUAUUACGACUU,,-3.6 ± 0.46
CUUUAGCAAUAUUACGAGUU,,-2.96 ± 0.4
CUUUAGCAAUAUUACGAUAU,-3.93 ± 0.35,-3.25 ± 0.38
CUUUAGCAAUAUUACGAUUC,-3.16 ± 0.2,-2.6 ± 0.33
CUUUAGCAAUAUUACGCAGC,,-2.27 ± 0.33
CUUUAGCAAUAUUACGCAUA,-3.68 ± 0.37,
CUUUAGCAAUAUUACGCCAA,-2.63 ± 0.37,
CUUUAGCAAUAUUACGCCUC,,-1.99 ± 0.43
CUUUAGCAAUAUUACGCUUC,,-2.32 ± 0.38
CUUUAGCAAUAUUACGGAAA,,-2.01 ± 0.27
CUUUAGCAAUAUUACGGACG,-0.38 ± 0.07,-0.273 ± 0.11
CUUUAGCAAUAUUACGGACU,-4.41 ± 0.31,-3.71 ± 0.28
CUUUAGCAAUAUUACGGAGG,-1.75 ± 0.15,-1.29 ± 0.19
CUUUAGCAAUAUUACGGUGG,-1.96 ± 0.1,-0.665 ± 0.11
CUUUAGCAAUAUUACGUCAG,-1.03 ± 0.12,-0.4 ± 0.13
CUUUAGCAAUAUUACGUGGA,-3.4 ± 0.4,-3.58 ± 0.31
CUUUAGCAAUAUUACGUUCG,-1.09 ± 0.13,0.499 ± 0.17
CUUUAGCAAUAUUACGUUGC,-3.08 ± 0.28,-3.55 ± 0.39
GAAAAGCAAUAUUACGAAAU,-1.74 ± 0.14,-1.09 ± 0.16
GAAAAGCAAUAUUACGACCC,0.23 ± 0.13,-0.182 ± 0.18

Sequence,self-splicing fitness (ln) (30 °C),self-splicing fitness (ln) (37 °C)
GAAAAGCAAUAUUACGAUAU,-1.15 ± 0.071,-0.354 ± 0.093
GAAAAGCAAUAUUACGAUUA,-0.531 ± 0.07,-0.0202 ± 0.076
GAAAAGCAAUAUUACGAUUG,-2.27 ± 0.13,-1.52 ± 0.14
GAAAAGCAAUAUUACGCGUA,-1.27 ± 0.11,-1.15 ± 0.11
GAAAAGCAAUAUUACGCGUG,-1.42 ± 0.065,-0.104 ± 0.078
GAAAAGCAAUAUUACGCUUG,-1.72 ± 0.13,-0.918 ± 0.14
GAAAAGCAAUAUUACGGCCA,-1.03 ± 0.16,0.81 ± 0.21
GAAAAGCAAUAUUACGGCCU,-0.569 ± 0.12,0.296 ± 0.14
GAAAAGCAAUAUUACGGUAG,-3.24 ± 0.18,-1.53 ± 0.13
GAAAAGCAAUAUUACGGUGA,-1.48 ± 0.07,-1.07 ± 0.075
GAAAAGCAAUAUUACGUAAA,-2.4 ± 0.13,-0.992 ± 0.14
GAAAAGCAAUAUUACGUAGG,-3.87 ± 0.14,-1.96 ± 0.11
GAAAAGCAAUAUUACGUGAG,-1.53 ± 0.068,-1.47 ± 0.11
GAACAGCAAUAUUACGAAUU,-1.15 ± 0.088,-0.293 ± 0.1
GAACAGCAAUAUUACGAGCC,-1.57 ± 0.14,-1.09 ± 0.22
GAACAGCAAUAUUACGAGGC,-3.07 ± 0.18,-2.03 ± 0.14
GAACAGCAAUAUUACGAGUU,-2.29 ± 0.092,-0.935 ± 0.1
GAACAGCAAUAUUACGAUAA,-0.728 ± 0.076,-0.326 ± 0.092
GAACAGCAAUAUUACGAUAC,-0.825 ± 0.065,-0.127 ± 0.087
GAACAGCAAUAUUACGAUGC,-0.47 ± 0.079,0.126 ± 0.12
GAACAGCAAUAUUACGCAAA,-1.37 ± 0.12,-0.529 ± 0.11
GAACAGCAAUAUUACGCGUG,-0.931 ± 0.053,-0.34 ± 0.059
GAACAGCAAUAUUACGCUAA,-1.13 ± 0.062,-0.958 ± 0.075
GAACAGCAAUAUUACGCUCA,-1.23 ± 0.073,0.207 ± 0.1
GAACAGCAAUAUUACGCUCC,-3.43 ± 0.36,-2.34 ± 0.43

Sequence,self-splicing fitness (ln) (30 °C),self-splicing fitness (ln) (37 °C)
GAACAGCAAUAUUACGCUUG,-0.92 ± 0.072,-0.731 ± 0.087
GAACAGCAAUAUUACGGAUG,-2.79 ± 0.16,-2.29 ± 0.14
GAACAGCAAUAUUACGGCCA,-0.58 ± 0.18,-0.441 ± 0.22
GAACAGCAAUAUUACGGCUC,-0.329 ± 0.1,-0.256 ± 0.1
GAACAGCAAUAUUACGGGCC,-2.22 ± 0.14,-1.09 ± 0.17
GAACAGCAAUAUUACGUAGA,-0.427 ± 0.049,-0.162 ± 0.069
GAACAGCAAUAUUACGUAUC,-2.83 ± 0.1,-1.39 ± 0.12
GAACAGCAAUAUUACGUCAA,-1.14 ± 0.057,-0.166 ± 0.06
GAACAGCAAUAUUACGUGCC,-2.58 ± 0.14,-0.859 ± 0.12
GAACAGCAAUAUUACGUGGC,-3.03 ± 0.17,-2.6 ± 0.18
GAACAGCAAUAUUACGUGGU,-3.12 ± 0.11,-1.89 ± 0.09
GAACAGCAAUAUUACGUGUA,-1.58 ± 0.062,-0.438 ± 0.069
GAACAGCAAUAUUACGUUGA,-1.47 ± 0.066,-1.02 ± 0.077
GAAGAGCAAUAUUACGAAGG,-2.75 ± 0.17,-3.62 ± 0.46
GAAGAGCAAUAUUACGAUGU,-2.54 ± 0.2,-1.39 ± 0.15
GAAGAGCAAUAUUACGAUUG,-2.53 ± 0.29,-2.4 ± 0.39
GAAGAGCAAUAUUACGCCCC,-1.93 ± 0.17,-0.902 ± 0.18
GAAGAGCAAUAUUACGCGGG,-3.24 ± 0.28,-2.65 ± 0.41
GAAGAGCAAUAUUACGCGUU,-3.69 ± 0.33,-3.12 ± 0.28
GAAGAGCAAUAUUACGCUAU,-2.39 ± 0.24,-2.79 ± 0.48
GAAGAGCAAUAUUACGCUCC,-2.52 ± 0.24,
GAAGAGCAAUAUUACGCUUA,-3.49 ± 0.33,-1.3 ± 0.23
GAAGAGCAAUAUUACGGAGU,-3.07 ± 0.46,-2.47 ± 0.45
GAAGAGCAAUAUUACGGGCG,-3.54 ± 0.37,-2.84 ± 0.35
GAAGAGCAAUAUUACGGUGC,,-2.41 ± 0.21

Sequence,self-splicing fitness (ln) (30 °C),self-splicing fitness (ln) (37 °C)
GAAGAGCAAUAUUACGGUUC,-3.53 ± 0.29,-1.46 ± 0.22
GAAGAGCAAUAUUACGUCAG,-3.58 ± 0.2,-3.03 ± 0.35
GAAGAGCAAUAUUACGUGCA,-2.38 ± 0.18,-1.24 ± 0.2
GAAGAGCAAUAUUACGUGUC,-4.75 ± 0.46,-2.79 ± 0.27
GAAGAGCAAUAUUACGUGUU,-4.18 ± 0.23,-2.12 ± 0.18
GAAGAGCAAUAUUACGUUAC,-2.82 ± 0.17,-2.7 ± 0.2
GAAUAGCAAUAUUACGAAAA,-1.52 ± 0.22,-1.02 ± 0.2
GAAUAGCAAUAUUACGAAAG,-3.86 ± 0.41,-2.55 ± 0.27
GAAUAGCAAUAUUACGAAUA,-1.07 ± 0.17,-1.57 ± 0.22
GAAUAGCAAUAUUACGACGA,-0.436 ± 0.36,0.000314 ± 0.24
GAAUAGCAAUAUUACGAGCA,-1.94 ± 0.23,-0.431 ± 0.14
GAAUAGCAAUAUUACGAGUG,-2.01 ± 0.076,-2.34 ± 0.13
GAAUAGCAAUAUUACGCACU,-0.269 ± 0.089,0.18 ± 0.11
GAAUAGCAAUAUUACGCAUA,-2.62 ± 0.29,-1.08 ± 0.17
GAAUAGCAAUAUUACGCCCC,-0.0149 ± 0.39,-0.245 ± 0.42
GAAUAGCAAUAUUACGCCGC,,-1.45 ± 0.43
GAAUAGCAAUAUUACGCGAC,-1.89 ± 0.2,0.34 ± 0.18
GAAUAGCAAUAUUACGCGCC,-1.29 ± 0.24,-1.32 ± 0.29
GAAUAGCAAUAUUACGCGGA,-1.54 ± 0.15,-1.43 ± 0.15
GAAUAGCAAUAUUACGCUGG,-2.17 ± 0.33,-0.278 ± 0.24
GAAUAGCAAUAUUACGCUGU,-3.12 ± 0.21,-2.1 ± 0.15
GAAUAGCAAUAUUACGCUUC,,-1.83 ± 0.44
GAAUAGCAAUAUUACGGAUU,-0.925 ± 0.053,-0.4 ± 0.07
GAAUAGCAAUAUUACGGCAC,-0.0381 ± 0.12,-0.000648 ± 0.15

# — the supplement of paper PMC7877785
